Results on six substances are retold here after PMC4434771.

For experiment [1], the target named is human neonatal Fc receptor (FcRn), heterodimer of alpha-FcRn and beta2 microglobulin (human) (UniProt P55899). As to the kind of experiment: FcRn affinity chromatography.
For experiment [2] the target is unchanged. As to the kind of experiment: SPR.

Sequence of UniProt P55899 (P55899 24-365, chain 1 of 2): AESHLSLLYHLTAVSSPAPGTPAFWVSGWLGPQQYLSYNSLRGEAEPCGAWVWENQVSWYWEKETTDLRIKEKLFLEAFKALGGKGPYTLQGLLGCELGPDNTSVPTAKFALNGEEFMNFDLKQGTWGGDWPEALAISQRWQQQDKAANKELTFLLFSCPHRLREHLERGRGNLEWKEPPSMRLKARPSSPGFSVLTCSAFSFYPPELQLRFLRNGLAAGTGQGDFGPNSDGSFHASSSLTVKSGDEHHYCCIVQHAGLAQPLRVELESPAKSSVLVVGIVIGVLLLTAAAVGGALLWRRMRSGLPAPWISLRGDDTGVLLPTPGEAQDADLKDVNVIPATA
Sequence of UniProt P55899 (P61769 21-119, chain 2 of 2, further chain): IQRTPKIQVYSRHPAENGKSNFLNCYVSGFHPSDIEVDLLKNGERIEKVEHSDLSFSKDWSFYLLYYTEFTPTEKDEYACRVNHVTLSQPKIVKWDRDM

“IdeS-cleaved Fc region of briakinumab (domain or fragment)”: the FcRn column retention time in experiment [1] turned out to be 85.7 min.
Still for that read-out and setting: in the case of “IdeS-cleaved Fc region of ustekinumab (domain or fragment)” it was 85.2 min.
In experiment [1], briakinumab (antibody) came in with a FcRn column elution pH of 7.9 pH and a FcRn column retention time of 93.7 min.
In the case of “mAb 1 (ustekinumab Fv + briakinumab constant domains) (antibody)”, the FcRn column retention time in experiment [1] was determined as 84.3 min. Also, the Rel. KD (KD normalised to the KD of ustekinumab) in experiment [2] was determined as 1.
Substance “mAb 3 (ustekinumab HC + briakinumab LC) (from UniProt P01857 2-107) (antibody)” yielded a FcRn column retention time in experiment [1] of 92.4 min.
Regarding “mAb 5 (ustekinumab CDRs on briakinumab) (antibody)”, the FcRn column retention time in experiment [1] is 85.1 min. This substance yielded a Rel. KD (KD normalised to the KD of ustekinumab) in experiment [2] of 0.9.
